Molecular target: human CD4 on cells (human) (UniProt P01730)
Assay: cell-based or functional assay

MLR IL-2 Production (IC50): 20 ng/mL
MLR Proliferation (IC50): 20 ng/mL
Substance: CE9γ4λK, chimeric anti-CD4 antibody with human gamma 4 heavy chain constant domain and human kappa light chain constant region

Source: patent US7452534
